This passage reports stoichiometry N results from PMC5242468.

Test [1] deals with β-Glucuronidase (GusA) (E. coli MG1655), P05804. Description: SEC; after 65°C and pH 5 for 20 min (high temperature and acidic pH); data not shown. The following applies: remark: other sources report otherwise.
Test [2] shares this target. Description: SEC; gel filtration of the freshly purified enzymes against reference proteins (thyroglobulin, aldolase, albumin, ovalbumin, chymotrypsinogen A); results name a Superose 12 10/300 column, methods name a ZORBAX GF-250 HPLC column, 130 mM NaCl/20 mM Na2HPO4 pH 7.0, 23°C. The settings on record: remark: other sources report otherwise.

B1: β-Glucuronidase (GusA), P05804 1-603 (enzyme)
chain: MLRPVETPTREIKKLDGLWAFSLDRENCGIDQRWWESALQESRAIAVPGSFNDQFADADIRNYAGNVWYQREVFIPKGWAGQRIVLRFDAVTHYGKVWVNNQEVMEHQGGYTPFEADVTPYVIAGKSVRITVCVNNELNWQTIPPGMVITDENGKKKQSYFHDFFNYAGIHRSVMLYTTPNTWVDDITVVTHVAQDCNHASVDWQVVANGDVSVELRDADQQVVATGQGTSGTLQVVNPHLWQPGEGYLYELCVTAKSQTECDIYPLRVGIRSVAVKGEQFLINHKPFYFTGFGRHEDADLRGKGFDNVLMVHDHALMDWIGANSYRTSHYPYAEEMLDWADEHGIVVIDETAAVGFNLSLGIGFEAGNKPKELYSEEAVNGETQQAHLQAIKELIARDKNHPSVVMWSIANEPDTRPQGAREYFAPLAEATRKLDPTRPITCVNVMFCDAHTDTISDLFDVLCLNRYYGWYVQSGDLETAEKVLEKELLAWQEKLHQPIIITEYGVDTLAGLHSMYTDMWSEEYQCAWLDMYHRVFDRVSAVVGEQVWNFADFATSQGILRVGGNKKGIFTRDRKPKSAAFLLQKRWTGMNFGEKPQQGGKQ
Usually stoichiometry N stands for the number of molecules, sites or subunits per partner or assembly. On to B1, for which the stoichiometry N in test [1] and in test [2] was 4 each time.
